{"source": "paper PMC7797054", "about": "“Structural basis for inhibition of the type I-F CRISPR–Cas surveillance complex by AcrIF4, AcrIF7 and AcrIF14” (Nucleic Acids Research, 2020)", "molecules": {"B1": {"name": "Cas7f subunit of the Csy complex (natural protein, Pseudomonas aeruginosa)", "chain": "MSKPILSTASVLAFERKLDPSDALMSAGAWAQRDASQEWPAVTVREKSVRGTISNRLKTKDRDPAKLDASIQSPNLQTVDVANLPSDADTLKVRFTLRVLGGAGTPSACNDAAYRDKLLQTVATYVNDQGFAELARRYAHNLANARFLWRNRVGAEAVEVRINHIRQGEVARAWRFDALAIGLRDFKADAELDALAELIASGLSGSGHVLLEVVAFARIGDGQEVFPSQELILDKGDKKGQKSKTLYSVRDAAAIHSQKIGNALRTIDTWYPDEDGLGPIAVEPYGSVTSQGKAYRQPKQKLDFYTLLDNWVLRDEAPAVEQQHYVIANLIRGGVFGEAEEK", "notes": "Cas7f (Csy3) of Pseudomonas aeruginosa PA14; Stood in the assay as a subunit (six copies) of the whole Csy complex; It may carry the His tag of the complex (surmise); also called Cas7.1f-Cas7.6f; Cas7.4f; source: E. coli BL21 (DE3), co-expressed and purified as part of the Csy complex (HisTrap HP, HiTrap Q, Superdex 200)"}}, "key": {"[1]": {"target": "type I-F CRISPR-Cas surveillance complex (the Csy complex) from Pseudomonas aeruginosa PA14 (Pseudomonas aeruginosa) (UniProt Q02ML9)", "sequence (Q02ML9 whole entry, chain 1 of 3)": "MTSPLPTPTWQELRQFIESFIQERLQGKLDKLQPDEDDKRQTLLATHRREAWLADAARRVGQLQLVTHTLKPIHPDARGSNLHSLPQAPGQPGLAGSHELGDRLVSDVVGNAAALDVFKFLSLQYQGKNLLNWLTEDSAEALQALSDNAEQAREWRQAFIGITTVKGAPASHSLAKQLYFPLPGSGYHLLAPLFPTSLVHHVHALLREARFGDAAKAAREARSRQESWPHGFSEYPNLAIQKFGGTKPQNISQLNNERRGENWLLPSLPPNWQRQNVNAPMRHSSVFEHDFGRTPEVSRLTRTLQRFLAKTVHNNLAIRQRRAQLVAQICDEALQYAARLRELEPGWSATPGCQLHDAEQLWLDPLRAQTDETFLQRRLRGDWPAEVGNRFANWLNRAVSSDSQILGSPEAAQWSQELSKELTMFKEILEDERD", "sequence (Q02MM0 whole entry, chain 2 of 3, further chain)": "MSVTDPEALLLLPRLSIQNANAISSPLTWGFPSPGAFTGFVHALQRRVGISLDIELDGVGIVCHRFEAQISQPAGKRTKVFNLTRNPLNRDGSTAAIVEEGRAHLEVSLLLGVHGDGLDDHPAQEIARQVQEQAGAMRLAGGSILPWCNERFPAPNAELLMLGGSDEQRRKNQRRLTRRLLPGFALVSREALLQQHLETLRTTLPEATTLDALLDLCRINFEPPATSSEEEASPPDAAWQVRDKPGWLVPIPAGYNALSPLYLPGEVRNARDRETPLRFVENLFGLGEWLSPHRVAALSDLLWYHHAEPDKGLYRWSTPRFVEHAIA", "sequence (Q02MM2 whole entry, chain 4 of 3, further chain)": "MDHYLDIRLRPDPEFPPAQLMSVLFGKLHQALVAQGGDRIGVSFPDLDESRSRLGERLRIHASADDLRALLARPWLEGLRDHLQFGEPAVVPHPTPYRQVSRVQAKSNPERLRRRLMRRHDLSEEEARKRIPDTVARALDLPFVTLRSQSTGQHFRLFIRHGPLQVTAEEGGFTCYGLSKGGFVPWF", "assay": "cryo-EM structure; Csy incubated with AcrIF protein at molar ratio 1:10 for 1 h on ice, SEC in 20 mM HEPES pH 7.5, 100 mM KCl, 5% glycerol, 1 mM TCEP; 0.5 mg/ml on UltrAuFoil grids, Titan Krios 300 kV"}, "[2]": {"target": "the molecule itself", "assay": "cryo-EM structure; Csy incubated with AcrIF protein at molar ratio 1:10 for 1 h on ice, SEC in 20 mM HEPES pH 7.5, 100 mM KCl, 5% glycerol, 1 mM TCEP; 0.5 mg/ml on UltrAuFoil grids, Titan Krios 300 kV"}}, "data": [{"molecule": "AcrIF14 (natural protein)", "values": [{"measurement": "stoichiometry N", "setting": "[1]", "result": 2}]}, {"molecule": "B1", "values": [{"measurement": "stoichiometry N", "setting": "[2]", "result": 6}]}]}
